Kd, binding result and stoichiometry N data for three molecules are collected here from PMC2764441.

The target of data set [1] is NF-kB p65 homodimer, murine (mouse, UniProt Q04207 19-306). Kind of data set: EMSA. On the technique in general: In EMSA bound probe runs differently from free probe, usually more slowly.
Data set [2] concerns the target NF-kB p65 homodimer, human (human, UniProt Q04206 19-306). The data set is described as follows: EMSA.
Data set [3] addresses T1, NF-κB p50 (recombinant human p50) (human), P19838.
T1 chain: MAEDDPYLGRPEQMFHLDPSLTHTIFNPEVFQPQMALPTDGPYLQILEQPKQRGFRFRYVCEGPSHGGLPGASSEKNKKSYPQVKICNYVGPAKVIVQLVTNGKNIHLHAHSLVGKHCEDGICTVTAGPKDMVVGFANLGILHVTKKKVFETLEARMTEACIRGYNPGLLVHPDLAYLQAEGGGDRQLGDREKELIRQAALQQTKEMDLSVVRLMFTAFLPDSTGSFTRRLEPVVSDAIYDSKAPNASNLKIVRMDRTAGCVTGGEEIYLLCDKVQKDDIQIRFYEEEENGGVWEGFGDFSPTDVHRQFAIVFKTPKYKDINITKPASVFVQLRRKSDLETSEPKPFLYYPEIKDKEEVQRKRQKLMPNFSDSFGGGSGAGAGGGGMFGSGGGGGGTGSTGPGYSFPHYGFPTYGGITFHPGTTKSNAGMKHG
Kind of data set: cross-linking. The note with it: remark: other sources report otherwise.

Data set [4] has as its target T2, NF-κB p65 (recombinant p65) (not stated (human or murine protein purified)), Q04207.
T2 chain: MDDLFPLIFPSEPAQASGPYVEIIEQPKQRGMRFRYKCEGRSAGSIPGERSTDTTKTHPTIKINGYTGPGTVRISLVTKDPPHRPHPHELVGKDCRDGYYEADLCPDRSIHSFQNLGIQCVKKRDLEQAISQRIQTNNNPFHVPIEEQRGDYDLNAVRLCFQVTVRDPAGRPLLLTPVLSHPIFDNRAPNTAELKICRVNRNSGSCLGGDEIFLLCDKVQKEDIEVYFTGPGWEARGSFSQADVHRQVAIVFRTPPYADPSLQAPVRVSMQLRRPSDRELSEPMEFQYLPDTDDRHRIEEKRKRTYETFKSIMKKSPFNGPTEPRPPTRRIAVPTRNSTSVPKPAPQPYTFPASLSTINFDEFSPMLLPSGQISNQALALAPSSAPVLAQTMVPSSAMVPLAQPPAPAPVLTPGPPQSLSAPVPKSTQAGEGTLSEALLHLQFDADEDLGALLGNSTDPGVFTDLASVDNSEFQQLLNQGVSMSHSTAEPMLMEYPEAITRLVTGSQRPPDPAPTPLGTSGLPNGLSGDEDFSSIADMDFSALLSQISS
The data set is described as follows: cross-linking. The note with it: remark: other sources report otherwise.

Values joined by “and” are separate entries in the source; they are usually repeats but may differ in a detail not shown here. Equal values may be shown once.

Sequence of NF-kB p65 homodimer, human (Q04206 19-306): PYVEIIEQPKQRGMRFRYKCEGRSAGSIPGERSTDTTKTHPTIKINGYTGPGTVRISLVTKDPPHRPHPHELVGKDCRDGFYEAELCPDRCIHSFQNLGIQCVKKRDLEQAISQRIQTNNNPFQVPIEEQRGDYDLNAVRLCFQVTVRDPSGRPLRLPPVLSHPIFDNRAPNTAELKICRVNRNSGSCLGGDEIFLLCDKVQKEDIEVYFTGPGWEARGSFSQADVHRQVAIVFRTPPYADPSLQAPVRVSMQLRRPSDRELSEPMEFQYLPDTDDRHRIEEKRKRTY

B1: R1 anti-p65 RNA aptamer (structured_RNA)
RNA: GAAGCUUACAAGAAGGACAGCACGAAUAAAACCUGCGUAAAUCCGCCCCAUUUGUGUAAGGGUAGUGGGUCGAAUUCCGCUCA
As to B1, the Kd in data set [1] is 38 ± 20 nM. Also, the binding result in data set [2] is “binds”.

B2: NF-κB p50 (recombinant human p50), P19838 1-433 (natural protein)
chain: T1 chain
In the case of B2, in data set [3], the stoichiometry N was 2 and 4.

B3: NF-κB p65 (recombinant p65), Q04207 1-549 (natural protein)
chain: T2 chain
On to B3, for which the stoichiometry N in data set [4] is 2.

For orientation: Kd means the free concentration of one partner at which half of the binding sites on the other are occupied at equilibrium, for simple one-to-one binding. High values mean lower affinity, low ones higher affinity. As a reminder, the stoichiometry N is the number of molecules, sites or subunits per partner or assembly.
